Reference: patent US20250042963A1, “METHODS FOR TREATING MYELOPROLIFERATIVE DISORDERS” (Acceleron Pharma Inc., priority 2015, published 2025)
Numbering of substitutions follows the chain as printed. Names may count otherwise.

Legend:
[1] = test system: patients with a myeloproliferative disorder; conditions: cited from earlier work; for toxicity: patients with splenomegaly
human TGFβ1 = target: T1, human TGFβ1 (Homo sapiens, UniProt P01137); experiment: Reporter gene assay in A549 cells (pGL3(CAGA)12), inhibition of TGFβ1 activity; assay type: cell-based; conditions: for Degree of Ligand Inhibition: Moderate (ligand TGFβ1): Summary of Ligand Selectivity, cell names the ligand in this class; for inhibition of TGFβ1 activity / signaling (in words): cell-based reporter assay; for IC50: A549 reporter gene assay, hTGFβ1 640 pg/ml
T1 construct: purchased PeproTech
From the text: (§1) A reporter gene assay in A549 cells was used to determine the ability of hTβRII-hFc variants to inhibit activity of TGFβ1, TGFβ2, and TGFβ3. This assay is based on a human lung carcinoma cell line transfected with a pGL3(CAGA)12 reporter plasmid (Dennler et al., 1998, EMBO 17: 3091-3100) as well as a Renilla reporter plasmid (pRLCMV) to control for transfection efficiency. The CAGA motif is present in the promoters of TGFβ-responsive genes (for example, PAI-1), so this vector is of general use for factors signaling through SMAD2 and SMAD3.
(§2) On the first day of the assay, A549 cells (ATCC®: CCL-185™) were distributed in 48-well plates at 6.5×10^4 cells per well. On the second day, a solution containing 10 μg pGL3(CAGA)12, 100 ng pRLCMV, 30 μl X-tremeGENE 9 (Roche Applied Science), and 970 μl OptiMEM (Invitrogen) was preincubated for 30 min, then added to Eagle's minimum essential medium (EMEM, ATCC®) supplemented with 0.1% BSA, which was applied to the plated cells (500 μl/well) for incubation overnight at […]. On the third day, medium was removed, and cells were incubated overnight at 37° C. with a mixture of ligands and inhibitors prepared as described below.
(§3) Serial dilutions of test articles were made in a 48-well plate in a 200 μl volume of assay buffer (EMEM+0.1% BSA). An equal volume of assay buffer containing the test ligand was added to obtain a final ligand concentration equal to the EC50 determined previously. Human TGFβ 1, human TGFβ2, and human TGFβ3 were obtained from PeproTech. Test solutions were incubated at 37° C. for 30 minutes, then 250 μl of the mixture was added to all wells. Each concentration of test article was determined in duplicate. After incubation with test solutions overnight, cells were rinsed with phosphate-buffered saline, then lysed with passive lysis buffer (Promega E1941) and stored overnight at −70° C. On the fourth and final day, plates were warmed to room temperature with gentle shaking. Cell lysates were transferred in duplicate to a chemiluminescence plate (96-well) and analyzed in a luminometer with reagents from a Dual-Luciferase Reporter Assay system (Promega E1980) to determine normalized luciferase activity.

human TGFβ3 = target: T2, human TGFβ3 (Homo sapiens, UniProt P10600); experiment: Reporter gene assay in A549 cells (pGL3(CAGA)12), inhibition of TGFβ3 activity; assay type: cell-based; conditions: for inhibition of TGFβ3 activity / signaling (in words): cell-based reporter assay
T2 construct: purchased PeproTech
T2 sequence (P10600 301-412 limits assumed): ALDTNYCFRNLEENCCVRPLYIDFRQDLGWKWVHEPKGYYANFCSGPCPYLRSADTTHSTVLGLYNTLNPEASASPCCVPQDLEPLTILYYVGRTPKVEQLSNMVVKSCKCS
From the text: A reporter gene assay in A549 cells was used to determine the ability of hTβRII-hFc variants to inhibit activity of TGFβ1, TGFβ2, and TGFβ3. This assay is based on a human lung carcinoma cell line transfected with a pGL3(CAGA)12 reporter plasmid (Dennler et al., 1998, EMBO 17: 3091-3100) as well as a Renilla reporter plasmid (pRLCMV) to control for transfection efficiency.
as §2
as §3, with “An equal volume of assay buffer containing the test ligand was added to obtain a final ligand concentration equal to the EC50 determined previously.” left out

human TGFβ2 = target: T3, human TGFβ2 (Homo sapiens, UniProt P61812); experiment: Reporter gene assay in A549 cells (pGL3(CAGA)12), inhibition of TGFβ2 activity; assay type: cell-based; conditions: Summary of Ligand Selectivity; cell names the ligand in this class
T3 construct: purchased PeproTech
T3 sequence (P61812 303-414 limits assumed): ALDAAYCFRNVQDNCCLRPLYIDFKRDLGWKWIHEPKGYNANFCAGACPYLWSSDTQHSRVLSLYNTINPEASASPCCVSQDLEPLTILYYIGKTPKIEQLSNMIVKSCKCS
From the text: as §1, §2, §3

[2] = Summary of Ligand Selectivity, cell names the ligand in this class
[3] = third experiment (C-terminal truncation, N70D)

T1 sequence (P01137 279-390 limits assumed): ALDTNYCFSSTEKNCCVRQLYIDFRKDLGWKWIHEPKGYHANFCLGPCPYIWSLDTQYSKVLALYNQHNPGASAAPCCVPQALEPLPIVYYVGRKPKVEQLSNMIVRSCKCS

NC(=O)NO [HC, Hydroxycarbamide]
patients with reductions in spleen size from 25%-50% ([1]; patients treated with HC): up to 35%
toxicity [1]: exacerbate cytopenias

Nc1nc(Cl)nc2c1ncn2[C@H]1C[C@H](O)[C@@H](CO)O1 [cladribine]
toxicity [1]: severe but reversible cytopenias
spleen responses / response rate ([1]; symptomatic splenomegaly): up to 50%

B1: TβRIIshort(29-159)-G2Fc: N-terminally truncated (6 aa) short-isoform ECD fused to IgG2 Fc; SEQ ID NO: 29 (unprocessed), 55 (mature) (protein)
chain: QKSVNNDMIVTDNNGAVKFPQLCKFCDVRFSTCDNQKSCMSNCSITSICEKPQEVCVAVWRKNDENITLETVCHDPKLPYHDFILEDAASPKCIMKEKKKPGETFFMCSCSSDECNDNIIFSEEYNTSNPDTGGGVECPPCPAPPVAGPSVFLFPPKPKDTLMISRTPEVTCVVVDVSHEDPEVQFNWYVDGVEVHNAKTKPREEQFNSTFRVVSVLTVVHQDWLNGKEYKCKVSNKGLPAPIEKTISKTKGQPREPQVYTLPPSREEMTKNQVSLTCLVKGFYPSDIAVEWESNGQPENNYKTTPPMLDSDGSFFLYSKLTVDKSRWQQGNVFSCSVMHEALHNHYTQKSLSLSPGK
Degree of Ligand Inhibition: Moderate (ligand TGFβ1) (human TGFβ1): TGFβ1
inhibition of TGFβ1 activity / signaling (in words) (human TGFβ1): maintains some TGFβ1 inhibitor effects
Degree of Ligand Inhibition: Negligible (ligand TGFβ3) (human TGFβ3; [2]): TGFβ3
inhibition of TGFβ3 activity / signaling (in words) (human TGFβ3): greatly diminished ability to inhibit
Degree of Ligand Inhibition: Negligible (ligand TGFβ2) (human TGFβ2): TGFβ2

B2: TβRIIshort(23-153/N70D)-G2Fc: C-terminally truncated short-isoform ECD with N70D substitution fused to IgG2 Fc; SEQ ID NO: 41 (unprocessed), 61 (mature) (protein)
chain: TIPPHVQKSVNNDMIVTDNNGAVKFPQLCKFCDVRFSTCDNQKSCMSDCSITSICEKPQEVCVAVWRKNDENITLETVCHDPKLPYHDFILEDAASPKCIMKEKKKPGETFFMCSCSSDECNDNIIFSEEYTGGGVECPPCPAPPVAGPSVFLFPPKPKDTLMISRTPEVTCVVVDVSHEDPEVQFNWYVDGVEVHNAKTKPREEQFNSTFRVVSVLTVVHQDWLNGKEYKCKVSNKGLPAPIEKTISKTKGQPREPQVYTLPPSREEMTKNQVSLTCLVKGFYPSDIAVEWESNGQPENNYKTTPPMLDSDGSFFLYSKLTVDKSRWQQGNVFSCSVMHEALHNHYTQKSLSLSPGK
IC50 (human TGFβ1; [3]): 17.7 nM
inhibition of TGFβ1 activity / signaling (in words) (human TGFβ1): greatly diminished ability to inhibit TGFβ1
Degree of Ligand Inhibition: Potent (ligand TGFβ3) (human TGFβ3; [2]): TGFβ3
inhibition of TGFβ3 activity / signaling (in words) (human TGFβ3): virtually undiminished ability to inhibit TGFβ3
Degree of Ligand Inhibition: Negligible (ligand TGFβ2) (human TGFβ2): TGFβ2

B3: TβRIIshort(23-153)-G2Fc: C-terminally truncated (6 aa) short-isoform ECD fused to IgG2 Fc; SEQ ID NO: 37 (unprocessed), 59 (mature) (protein)
chain: B2 chain with D48N
IC50 (human TGFβ1; [3]): 2.62 nM
IC50 (human TGFβ3; A549 reporter gene assay, hTGFβ3 270 pg/ml, third experiment (C-terminal truncation, N70D)): 0.14 nM

B4: TβRIIshort(23-159/D110K)-G2Fc: full-length short-isoform ECD with D110K substitution fused to IgG2 Fc; SEQ ID NO: 25 (unprocessed), 53 (mature) (protein)
chain: TIPPHVQKSVNNDMIVTDNNGAVKFPQLCKFCDVRFSTCDNQKSCMSNCSITSICEKPQEVCVAVWRKNDENITLETVCHDPKLPYHKFILEDAASPKCIMKEKKKPGETFFMCSCSSDECNDNIIFSEEYNTSNPDTGGGVECPPCPAPPVAGPSVFLFPPKPKDTLMISRTPEVTCVVVDVSHEDPEVQFNWYVDGVEVHNAKTKPREEQFNSTFRVVSVLTVVHQDWLNGKEYKCKVSNKGLPAPIEKTISKTKGQPREPQVYTLPPSREEMTKNQVSLTCLVKGFYPSDIAVEWESNGQPENNYKTTPPMLDSDGSFFLYSKLTVDKSRWQQGNVFSCSVMHEALHNHYTQKSLSLSPGK
IC50 (human TGFβ1; first experiment (D110K)): > 73.6 nM
inhibition of TGFβ1 activity / signaling (in words) (human TGFβ1): loss of inhibition
Degree of Ligand Inhibition: Moderate (ligand TGFβ3) (human TGFβ3; [2]): TGFβ3
inhibition of TGFβ3 activity / signaling (in words) (human TGFβ3): intermediate inhibition
Degree of Ligand Inhibition: Negligible (ligand TGFβ2) (human TGFβ2): TGFβ2

B5: TβRIIshort(35-159)-G2Fc: N-terminally truncated (12 aa) short-isoform ECD fused to IgG2 Fc; SEQ ID NO: 33 (unprocessed), 57 (mature) (protein)
chain: DMIVTDNNGAVKFPQLCKFCDVRFSTCDNQKSCMSNCSITSICEKPQEVCVAVWRKNDENITLETVCHDPKLPYHDFILEDAASPKCIMKEKKKPGETFFMCSCSSDECNDNIIFSEEYNTSNPDTGGGVECPPCPAPPVAGPSVFLFPPKPKDTLMISRTPEVTCVVVDVSHEDPEVQFNWYVDGVEVHNAKTKPREEQFNSTFRVVSVLTVVHQDWLNGKEYKCKVSNKGLPAPIEKTISKTKGQPREPQVYTLPPSREEMTKNQVSLTCLVKGFYPSDIAVEWESNGQPENNYKTTPPMLDSDGSFFLYSKLTVDKSRWQQGNVFSCSVMHEALHNHYTQKSLSLSPGK
Degree of Ligand Inhibition: Moderate (ligand TGFβ1) (human TGFβ1): TGFβ1
inhibition of TGFβ1 activity / signaling (in words) (human TGFβ1): maintains some TGFβ1 inhibitor effects
Degree of Ligand Inhibition: Negligible (ligand TGFβ3) (human TGFβ3; [2]): TGFβ3
inhibition of TGFβ3 activity / signaling (in words) (human TGFβ3): greatly diminished ability to inhibit
Degree of Ligand Inhibition: Negligible (ligand TGFβ2) (human TGFβ2): TGFβ2
